Laboratory results as given in PMC5207208 (Science (New York, N.Y.), 2016).
One block for each binder: values may come before it.

Columns and labels:
Nup192 = Nup192 (Chaetomium thermophilum, UniProt G0S4T0 1-1756); experiment: SEC-MALS
Nup188 = Nup188 (Chaetomium thermophilum, UniProt G0SFH5 1-1858); experiment: SEC-MALS
Sequence of Nup188 (G0SFH5 whole entry): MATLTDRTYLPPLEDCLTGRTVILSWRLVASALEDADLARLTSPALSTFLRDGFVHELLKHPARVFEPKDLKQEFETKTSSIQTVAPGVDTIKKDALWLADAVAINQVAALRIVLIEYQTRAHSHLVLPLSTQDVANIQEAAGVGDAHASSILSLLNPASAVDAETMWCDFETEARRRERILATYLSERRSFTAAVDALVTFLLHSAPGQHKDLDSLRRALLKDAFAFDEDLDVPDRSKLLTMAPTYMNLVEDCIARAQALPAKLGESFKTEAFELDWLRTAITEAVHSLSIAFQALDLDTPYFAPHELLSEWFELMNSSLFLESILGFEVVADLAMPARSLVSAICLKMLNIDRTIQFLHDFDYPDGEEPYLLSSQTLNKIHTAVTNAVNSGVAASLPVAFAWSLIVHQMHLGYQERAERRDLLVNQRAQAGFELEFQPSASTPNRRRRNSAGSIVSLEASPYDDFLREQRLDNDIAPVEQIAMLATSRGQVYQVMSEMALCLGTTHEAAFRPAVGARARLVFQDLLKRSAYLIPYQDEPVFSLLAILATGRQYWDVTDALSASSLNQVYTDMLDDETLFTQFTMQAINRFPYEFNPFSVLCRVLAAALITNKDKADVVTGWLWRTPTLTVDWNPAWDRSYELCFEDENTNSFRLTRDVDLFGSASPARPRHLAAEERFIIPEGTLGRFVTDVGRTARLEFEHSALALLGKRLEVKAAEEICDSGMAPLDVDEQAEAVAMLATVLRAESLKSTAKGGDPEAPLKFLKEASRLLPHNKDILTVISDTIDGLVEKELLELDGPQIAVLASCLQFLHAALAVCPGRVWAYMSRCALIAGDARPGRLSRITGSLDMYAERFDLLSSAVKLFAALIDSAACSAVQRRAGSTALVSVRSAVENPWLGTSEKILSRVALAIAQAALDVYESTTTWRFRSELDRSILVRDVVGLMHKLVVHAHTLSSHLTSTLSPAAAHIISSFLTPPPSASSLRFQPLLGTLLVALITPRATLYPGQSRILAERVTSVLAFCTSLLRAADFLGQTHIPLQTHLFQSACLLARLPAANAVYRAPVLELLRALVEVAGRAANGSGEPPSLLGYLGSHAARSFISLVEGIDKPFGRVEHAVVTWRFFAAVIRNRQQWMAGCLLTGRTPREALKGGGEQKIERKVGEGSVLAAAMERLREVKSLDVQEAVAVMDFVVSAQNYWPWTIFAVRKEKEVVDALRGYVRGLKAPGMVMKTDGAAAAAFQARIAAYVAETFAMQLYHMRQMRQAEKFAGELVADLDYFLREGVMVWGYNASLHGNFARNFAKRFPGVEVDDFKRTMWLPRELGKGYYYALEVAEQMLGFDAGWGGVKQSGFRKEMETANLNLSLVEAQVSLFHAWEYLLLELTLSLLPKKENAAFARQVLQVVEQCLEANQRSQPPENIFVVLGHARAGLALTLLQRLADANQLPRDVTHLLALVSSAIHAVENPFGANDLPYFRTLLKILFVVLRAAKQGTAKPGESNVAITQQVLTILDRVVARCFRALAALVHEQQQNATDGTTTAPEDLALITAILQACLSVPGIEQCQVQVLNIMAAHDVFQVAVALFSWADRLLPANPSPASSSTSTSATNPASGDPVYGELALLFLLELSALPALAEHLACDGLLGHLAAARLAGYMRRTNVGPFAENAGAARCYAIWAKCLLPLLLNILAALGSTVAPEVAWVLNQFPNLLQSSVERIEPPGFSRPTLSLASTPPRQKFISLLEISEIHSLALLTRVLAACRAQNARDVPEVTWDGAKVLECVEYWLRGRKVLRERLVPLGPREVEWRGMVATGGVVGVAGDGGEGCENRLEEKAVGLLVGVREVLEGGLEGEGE

Sequence of Nup192 (G0S4T0 whole entry): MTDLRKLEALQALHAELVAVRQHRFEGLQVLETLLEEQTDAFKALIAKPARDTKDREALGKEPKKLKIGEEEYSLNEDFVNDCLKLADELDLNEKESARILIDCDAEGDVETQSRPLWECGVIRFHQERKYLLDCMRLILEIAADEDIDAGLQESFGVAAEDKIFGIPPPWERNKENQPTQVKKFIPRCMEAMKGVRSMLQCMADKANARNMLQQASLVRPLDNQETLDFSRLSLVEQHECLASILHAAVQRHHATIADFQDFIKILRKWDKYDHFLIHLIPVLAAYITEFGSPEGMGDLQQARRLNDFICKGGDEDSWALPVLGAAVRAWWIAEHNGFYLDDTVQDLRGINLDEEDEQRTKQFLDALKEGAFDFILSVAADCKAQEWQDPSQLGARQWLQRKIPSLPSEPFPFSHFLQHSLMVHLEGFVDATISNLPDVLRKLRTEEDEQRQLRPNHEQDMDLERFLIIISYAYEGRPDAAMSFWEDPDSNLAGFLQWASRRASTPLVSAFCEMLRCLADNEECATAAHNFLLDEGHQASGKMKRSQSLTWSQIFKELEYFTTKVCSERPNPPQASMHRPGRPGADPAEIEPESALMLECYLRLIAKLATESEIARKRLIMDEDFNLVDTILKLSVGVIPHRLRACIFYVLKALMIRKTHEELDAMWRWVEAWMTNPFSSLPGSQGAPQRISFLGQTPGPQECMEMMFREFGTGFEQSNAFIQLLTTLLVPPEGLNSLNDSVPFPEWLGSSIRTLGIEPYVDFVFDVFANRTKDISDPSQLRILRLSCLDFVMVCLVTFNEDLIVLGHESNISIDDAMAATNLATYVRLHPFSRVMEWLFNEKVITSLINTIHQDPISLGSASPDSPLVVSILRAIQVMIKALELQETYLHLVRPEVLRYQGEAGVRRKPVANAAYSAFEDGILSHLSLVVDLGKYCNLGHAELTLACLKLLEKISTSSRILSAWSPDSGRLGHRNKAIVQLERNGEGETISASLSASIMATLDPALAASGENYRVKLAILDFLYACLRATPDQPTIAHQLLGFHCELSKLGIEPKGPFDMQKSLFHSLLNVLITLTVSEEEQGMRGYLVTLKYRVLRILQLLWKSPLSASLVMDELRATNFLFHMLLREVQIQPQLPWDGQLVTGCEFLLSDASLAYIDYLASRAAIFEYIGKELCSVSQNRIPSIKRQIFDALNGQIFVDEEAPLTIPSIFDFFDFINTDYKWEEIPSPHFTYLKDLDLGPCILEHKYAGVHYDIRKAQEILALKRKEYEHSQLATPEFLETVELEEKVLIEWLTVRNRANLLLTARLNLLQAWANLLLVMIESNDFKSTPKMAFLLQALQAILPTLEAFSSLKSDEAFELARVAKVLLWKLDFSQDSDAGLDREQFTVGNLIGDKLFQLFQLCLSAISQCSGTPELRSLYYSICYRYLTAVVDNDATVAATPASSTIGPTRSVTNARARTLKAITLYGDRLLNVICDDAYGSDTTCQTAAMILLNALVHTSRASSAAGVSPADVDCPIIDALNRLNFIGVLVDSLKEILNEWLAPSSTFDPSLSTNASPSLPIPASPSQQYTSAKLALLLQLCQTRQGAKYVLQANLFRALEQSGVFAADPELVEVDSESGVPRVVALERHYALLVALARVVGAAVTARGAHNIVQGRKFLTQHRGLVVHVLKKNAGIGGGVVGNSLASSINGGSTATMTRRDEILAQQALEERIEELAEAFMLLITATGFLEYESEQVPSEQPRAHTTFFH

B2: Nup145N fragment (residues 606–750) (domain or fragment, Chaetomium thermophilum, UniProt G0SAK3 606-750, looked up)
chain: DDKIQNPGPLATPLSGKAKVKSRSILPMYKLSPANASRLVTTPQKRAYGFSFSAYGSPTSPSSSASSTPGAFGQSILSSSINRGLNKSISASNLRRSLNVEDSILQPGAFSANSSMRLLGGPGSHKKLVINKDMRTDLFSPPNKD
binding result (Nup188): binds

Binder: EWEAQRKRIYQHFGIK (peptide, UniProt G0S024 286-301, looked up) [Nic96 fragment (residues 286–301)]
binding result (Nup192): binds

Now from value to binder:

binding result (Nup192): binds
B1: Nup145N fragment (residues 606–683) (domain or fragment, Chaetomium thermophilum, UniProt G0SAK3 606-683, looked up)
chain: DDKIQNPGPLATPLSGKAKVKSRSILPMYKLSPANASRLVTTPQKRAYGFSFSAYGSPTSPSSSASSTPGAFGQSILS

binding result (Nup188): binds
Binder: DFDAFLEENVTLEWEAQRKRIYQHFGIK (peptide, UniProt G0S024 274-301, looked up) [Nic96 fragment (residues 274–301)]
